Experimental findings from patent publication US20070020627 are described below.

Series [1] concerns E2x (6-finger) (artificial). The following applies: stated as Km; assay not described.
The test system of series [2] is SKD-E2c (6-finger) (artificial). The experiment in a line: cell_activity. The following applies: HeLa luciferase.
Series [3] relates to VP64-E2c (6-finger) (artificial). The experiment in a line: cell_activity. To be noted: HeLa luciferase.
Series [4] relates to SKD-E2cJ15E2x (12-finger) (artificial). The experiment in a line: cell_activity. To be noted: HeLa luciferase.
Series [5] deals with E2cJ15E2x-VP64 (12-finger) (artificial). The experiment in a line: cell_activity. The following applies: HeLa luciferase.
The test system of series [6] is E2c (6-finger) (artificial). The following applies: stated as Km; assay not described.

Turning to “ACCGGAGAAACCAGGGGA (double strand) [E2X target]”, the Kd in series [1] came out at 15 nM.
In the case of “E2p luciferase reporter (erbB2 promoter)”, the activity (fold repression) in series [2] turned out to be 36; in series [4] it was 8. Moreover, the activity (fold activation) was found to be 78 in series [3] and 45 in series [5].
The substance “GGGGCCGGAGCCGCAGTG (double strand) [E2c target]” gave a Kd in series [6] of 0.5 nM.

In general, Kd refers to the free concentration of one partner at which half of the binding sites on the other are occupied at equilibrium, for simple one-to-one binding.
